Assay: Inactivation of amoxicillin by lipases
Assay type: biochemical, Bacillus subtilis
Conditions: in 168 h, antibiotic 5.15 μg/, approximately 20° C.
Description: The plates are incubated 18 hours at 37° C.
In this example, the indicator bacterial strains sensitive to beta-lactam antibiotics (e.g. amoxicillin) and macrolide antibiotics were Bacillus subtilis (CIP 52.62) and Micrococcus luteus (CIP 53.45) respectively. All inactivation studies were performed with final antibiotic concentrations of 5.15 μg/. Lipases were used at final concentrations of 2.5 mg/mL (referred as ‘High concentration’) and 0.5 mg/mL (referred as ‘Low concentration’); they were obtained from Codexis.

B1: Lipase from Pseudomonas cepacia P1: Lipase from Pseudomonas cepacia (also called Bulkholderia cepacia) P1, obtained from Codexis (protein, UniProt P22088 45-364, looked up)
Triacylglycerol lipase: AAGYAATRYPIILVHGLSGTDKYAGVLEYWYGIQEDLQQNGATVYVANLSGFQSDDGPNGRGEQLLAYVKTVLAATGATKVNLVGHSQGGLSSRYVAAVAPDLVASVTTIGTPHRGSEFADFVQDVLAYDPTGLSSSVIAAFVNVFGILTSSSHNTNQDALAALQTLTTARAATYNQNYPSAGLGAPGSCQTGAPTETVGGNTHLLYSWAGTAIQPTLSVFGVTGATDTSTLPLVDPANVLDLSTLALFGTGTVMINRGSGQNDGLVSKCSALYGKVLSTSYKWNHLDEINQLLGVRGAYAEDPVAVIRTHANRLKLAGV
With B1 the Amoxicillin inactivation (enzyme H (High concentration, 2.5 mg/mL)) was “+++ in 168 h (100% inactivation = the residual concentration of antibiotic is smaller than the limit of detection of the microbiological test)” and the Amoxicillin inactivation (enzyme L (Low concentration, 0.5 mg/mL)) was “+++ in 168 h (100% inactivation = the residual concentration of antibiotic is smaller than the limit of detection of the microbiological test)”.

Reference: patent US20130236944A1, “METHODS FOR THE INACTIVATION OF ANTIBIOTICS” (priority 2011, published 2013)
